Legend:
[1] = system: microtubule cytoskeleton of fission yeast cells expressing Myc-Bot1; experiment: Microtubule depolymerization and Bot1p localization by immunofluorescence in cells expressing Myc-Bot1; format: cell-based, Schizosaccharomyces pombe; conditions: cells expressing Myc-Bot1 exposed for 45 min
Experimental: Cells in liquid cultures were grown exponentially for at least eight generations, at densities below 10^7 cells/ml, before the start of the experiment. Immunofluorescent staining was performed as described (46). Cells were fixed in methanol and stained with the following primary antibodies: a rabbit polyclonal antibody anti-Tea1p (40, a kind gift of Dr. P. Nurse, ICRF London), a rabbit polyclonal antibody anti-Orb6p, a monoclonal anti-hemagglutinin (HA) antibody (Covance), and a chicken polyclonal anti-Myc antibody (Molecular Probes). For actin and microtubule staining, a monoclonal anti-actin antibody (Amersham Pharmacia Biotech) and a monoclonal anti-tubulin antibody (TAT1; a kind gift of Dr. K. Gull), respectively, were used A CY3-conjugated anti-mouse, a CY3-conjugated anti-rabbit, or an FITC-conjugated anti-mouse were used as secondary antibodies (Sigma). Cells were immobilized on coverslips using PBS-containing antifade (Molecular Probes) as mounting medium and photographed using a Zeiss Axiophot microscope or a Leica DMRA microscope, equipped with Metamorph 1.7.4 software (Universal Images).
Because our previous results indicated a role for Tea1p in the control of Bot1p function, the effect of microtubule depolymerization on Bot1p localization was assessed. […]

[2] = target: T1, GST-tagged Tea1p (pESP-GSTtea1+) (Schizosaccharomyces pombe, UniProt P87061 1-1147); experiment: glutathione beads carrying GST-Tea1p incubated with a fission yeast extract containing HA-Cdc23p
T1 construct: also called GST-Tea1p
T1 sequence (looked up): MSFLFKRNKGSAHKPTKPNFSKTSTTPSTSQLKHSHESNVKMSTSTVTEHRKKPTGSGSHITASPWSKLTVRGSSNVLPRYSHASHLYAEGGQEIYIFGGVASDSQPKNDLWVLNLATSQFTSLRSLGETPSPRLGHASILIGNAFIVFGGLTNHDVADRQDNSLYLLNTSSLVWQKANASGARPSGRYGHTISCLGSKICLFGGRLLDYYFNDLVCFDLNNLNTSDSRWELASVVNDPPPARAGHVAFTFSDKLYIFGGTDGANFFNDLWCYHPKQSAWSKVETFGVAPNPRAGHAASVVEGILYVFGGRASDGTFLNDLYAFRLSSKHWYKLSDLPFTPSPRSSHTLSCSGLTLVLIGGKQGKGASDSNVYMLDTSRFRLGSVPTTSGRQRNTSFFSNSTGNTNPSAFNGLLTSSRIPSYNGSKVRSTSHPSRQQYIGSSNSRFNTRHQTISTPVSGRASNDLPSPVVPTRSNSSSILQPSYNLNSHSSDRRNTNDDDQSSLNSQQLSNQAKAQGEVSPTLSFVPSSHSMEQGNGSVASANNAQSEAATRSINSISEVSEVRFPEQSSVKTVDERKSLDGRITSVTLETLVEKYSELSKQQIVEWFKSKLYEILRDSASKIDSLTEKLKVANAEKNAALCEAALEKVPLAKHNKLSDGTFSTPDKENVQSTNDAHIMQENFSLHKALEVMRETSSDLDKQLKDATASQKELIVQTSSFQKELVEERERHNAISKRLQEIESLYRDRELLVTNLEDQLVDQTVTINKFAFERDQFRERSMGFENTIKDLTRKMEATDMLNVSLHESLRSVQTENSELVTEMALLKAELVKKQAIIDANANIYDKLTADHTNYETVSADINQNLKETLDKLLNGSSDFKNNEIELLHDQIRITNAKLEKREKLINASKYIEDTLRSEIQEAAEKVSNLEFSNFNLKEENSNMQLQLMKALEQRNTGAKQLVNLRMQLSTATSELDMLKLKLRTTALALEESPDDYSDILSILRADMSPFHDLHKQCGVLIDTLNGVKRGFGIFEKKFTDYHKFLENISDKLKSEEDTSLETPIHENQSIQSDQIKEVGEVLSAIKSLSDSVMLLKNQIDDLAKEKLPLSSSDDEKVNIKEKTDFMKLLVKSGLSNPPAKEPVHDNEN
Experimental: Cell extracts were prepared as described. GST-Tea1p and GST were purified using glutathione beads (Molecular Probes). Beads were spun, and further incubated for 4 hr with an extract containing HA-Bot1p or a control extract containing HA-Cdc23p.
Glutathione beads were washed three times in HB buffer and then eluted. The eluate was run on a 10% polyacrylamide gel, blotted on nitrocellulose, and probed with a primary anti-HA antibody (Covance) or, separately, with a primary anti-GST antibody (Molecular Probes) and with a horseradish peroxidase-conjugated secondary antibody (ECL, Amersham).
To confirm this interaction between Tea1p and Bot1p in fission yeast extracts, GST-Tea1p and HA-Bot1p were co-expressed in fission yeast cells, and GST-Tea1p was purified using glutathione-coupled resin. The beads were further incubated with an extract containing HA-Bot1p or HA-Cdc23p as a control.

[3] = target: T2, GAL4 binding domain fused to Cdc23p (pAS1-cdc23) (fission yeast, UniProt P04386 1-147; O42709 1-593); experiment: yeast two-hybrid (HIS3 and LACZ reporters)
T2 construct: Two-hybrid control bait
From the text: (§1) The tea1 gene was fused to the DNA binding domain of GAL4 in a plasmid (pAS1) carrying the trp1 marker. The orb6 gene was fused to the DNA binding domain of GAL4 (pAS1-orb6) and to the GAL4 activator domain (pACT2-orb6). The cDNA library was cloned to the transcription activator domain of GAL4 in a plasmid (pACT) carrying the leu2 marker. Plasmids pAS1, pACT2, pSE1111 (pACT-SNF4), pSE1112 (pAS1-SNF1), pAS1-p53, pAS1-lamin and the S. pombe library prepared in phage λ vectors and plasmids pAS1-SNF1 and pAS1-lamin, both harbored in Y187 strain, were kindly provided by Dr. S. Elledge. The test for cell growth on medium lacking histidine, the beta-galactosidase activation assay and the mating test to detect interaction specificity were performed as described (14). After screening 2×10⁶ transformants, we found five proteins that interact with Orb6p and four that interact with Tea1p in this system, and that were identified multiple times in the screen. Clones containing bot1+ were isolated 22 times in the Orb6p screen and eight times in the Tea1p screen. All clones contained the full-length bot1 sequence, although they usually lacked the initial ATG codon. For beta-galactosidase activation, three independent transformants were assayed for each condition.
(§2) To identify novel components of the Orb6p pathway, a two-hybrid screen was performed to identify cDNAs encoding proteins that interact with Orb6p. One of these, isolated 22 times in this screen, was a novel protein that we named Bot1p. […] The specificity of the positive interaction between Orb6p and Bot1p in the two-hybrid system was controlled by cotransformation of pAS1-orb6 and pACT-bot1 independently with a number of control plasmids. Co-expression of SNF1p or SNF4p was used as positive controls. Orb6p was unable to support the activation of the LACZ-GAL4 and HIS3-GAL4 promoters when co-expressed with GAL4 activation domain fused to SNF4p, or with the GAL4 activation domain (GAD) alone. Bot1p was unable to support the activation of the LACZ-GAL4 and HIS3-GAL4 promoters when co-expressed with the GAL4 binding domain fused to p53, Cdc23p, GAL4 DNA binding domain (GBD) alone, or fused to SNF1p or Cdt1p.

[4] = target: GAL4 binding domain fused to SNF1p (pSE1112, pAS1-SNF1) (UniProt P04386 1-147; P06782 1-633); experiment: yeast two-hybrid (HIS3 and LACZ reporters)
From the text: as §1, §2

[5] = target: T3, GAL4 binding domain fused to Cdt1p (pAS1-cdt1) (fission yeast, UniProt P04386 1-147; P40382 1-422, limits assumed); experiment: two-hybrid library screens with other baits; dot blotting of the isolated pACT plasmids
T3 construct: Two-hybrid control bait

In the case of `COC(=O)Nc1nc2ccccc2[nH]1` [MBC, methyl-benzidazole-carbamate], the “effect on microtubule cytoskeleton” value ([1]; DMSO control) is reported as “virtually complete microtubule depolymerization” and the Bot1p localization ([1]; DMSO control showed normal Bot1p localization at the cell tips) is reported as “more spread out and less restricted to the cell tips”.

B1: HA-tagged Cdc23p (pRep41-HA3cdc23) (other, fission yeast, UniProt O42709 1-593, looked up, not shown: small tags and cut ends)
chain: MHDPFIAEENDLDLEEKRLQRQLNEIQEKKRLRSAQKEASSENAEVIQVPRSPPQQVRVLTVSSPSKLKSPKRLILGIDKGKTGKDVSLGKGPRGPLPKPFHERLAEARNQERKRSDKLKTMKKNRKQSFQRKRNILEDGKSEEEKFPMKCDEIDPYSRQAIVIRYISDEVAKENIGGNQVYLIHQLLKLVRAPKFEAPEVDNYVVMGIVASNSGTRETVNGNKYCMLTLTDLKWQLECFLFGKAFERYWKIQSGTVIALLNPEVLKPKNPDIGRFSLKLDSEYDVLLEIGRSKHLGYCSSRRKSGELCKHWLDKRAGDVCEYHVDLAVQRSMSTRTEFASSMATMHEPRARREKRFRGQGFQGYFAGEKYSAIPNAVAGLYDAEDAVQTERERKERYKKQRAQAEREREILVRLSKRCCASSSSSSNSNNLSTGMSMRTLGHQYLNLQGSGVKNLHDKGNPTALSKDSEIDSSTKKPSVLASFNASIMNPKSSLPSFSNSAILGTNDAASGTPVPQDTTSTKVSPAVVFTSSPRIFSPQSLRKIGFDPTHSADASTTHSTATGLSRSGSLKNIKFRYEFTESDDEDDLEIVP
notes: also called HA-Cdc23p; HA-Cdc23
B1: no binding [2].

B2: Bot1p fused to the GAL4 activation domain (pACT-bot1) (other, not shown: large carriers)
chain: MRNSVEFSQLGLKTAFNLSQNKTYTSAVKKQFFSTGAFLSNGGNIDLNKHTQKNIDSKYVACNSRSVTPPNDVASSVSKNTLRHKQRLMMAQWLMSPEVQKAKSSSSGNVGLGPNTNQPFPLNPFFKPPRPISHSLRMKITDEYLQGASIEVLARKFNTSPQRIEALIKLRRINDEFEEKKKPILHSYNEVMEKMLNACTKPEMMQFNDGNDIPLRSNPVSLWKSLPEGETFTPQEAAKILKWPSIEELNMRQNATHFHKTSDEHKDLNEDEELISSSPSEVGKRVFRLIDLSTGNVYRRDTGGDIYVKRKKSTT
notes: also called bot1+ clones
B2: no binding [3]; no binding [4]; no binding [5].

From patent US20040106173A1, “Bot1: target for antifungal agents” (The University of Miami, priority 2001, published 2004)
